Results reported in ChEMBL document CHEMBL1157347, “Chemoenzymatic syntheses of prenylated aromatic small molecules using Streptomyces prenyltransferases with relaxed substrate specificities” (Bioorg Med Chem, 2008).

What was measured:
[1] = target: T1, Prenyltransferase homolog (Streptomyces coelicolor A3) (UniProt Q9FBZ2); assay: Ratio of Kcat to Km of Streptomyces coelicolor A3(2) prenyltransferase assessed as formation of 6-(3,7-Dimethyl-octa-2,6-dienyl)-5,7-dihydroxy-2-(4-hydroxy-phenyl)-chroman-4-one
T1 sequence (whole entry): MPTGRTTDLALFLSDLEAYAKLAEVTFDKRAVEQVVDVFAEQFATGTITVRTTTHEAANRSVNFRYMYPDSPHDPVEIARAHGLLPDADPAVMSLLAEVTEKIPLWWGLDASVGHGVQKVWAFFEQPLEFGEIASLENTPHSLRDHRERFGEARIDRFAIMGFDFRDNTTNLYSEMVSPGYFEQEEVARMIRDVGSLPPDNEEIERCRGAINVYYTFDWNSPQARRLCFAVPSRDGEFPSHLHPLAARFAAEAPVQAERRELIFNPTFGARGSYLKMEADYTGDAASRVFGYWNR

[2] = target: T1, Prenyltransferase homolog (Streptomyces coelicolor A3); assay: Ratio of Kcat to Km of Streptomyces coelicolor A3(2) prenyltransferase assessed as formation of 7-(3,7-Dimethyl-octa-2,6-dienyloxy)-5-hydroxy-2-(4-hydroxy-phenyl)-chroman-4-one
[3] = system: NphB prenyltransferase (Streptomyces sp. CL190); assay: Ratio of Kcat to Km of Streptomyces sp. CL190 NphB prenyltransferase assessed as formation of 4-(3,7-dimethylocta-2,6-dienyl)naphthalene-1,6-diol
[4] = system: NphB prenyltransferase (Streptomyces sp. CL190); assay: Ratio of Kcat to Km of Streptomyces sp. CL190 NphB prenyltransferase assessed as formation of 5-(3,7-dimethylocta-2,6-dienyl)naphthalene-1,6-diol
[5] = system: NphB prenyltransferase (Streptomyces sp. CL190); assay: Ratio of Kcat to Km of Streptomyces sp. CL190 NphB prenyltransferase assessed as formation of 2-(3,7-dimethylocta-2,6-dienyl)naphthalene-1,6-diol
[6] = target: NphB prenyltransferase (Streptomyces sp. CL190); assay: Activity for Streptomyces sp. CL190 NphB prenyltransferase assessed as formation of 5-(4-hydroxystyryl)-2-((E)-3,7-dimethylocta-2,6-dienyl)benzene-1,3-diol
[7] = substrate: O=C1C[C@@H](c2ccc(O)cc2)Oc2cc(O)cc(O)c21; assay: Activity for Streptomyces coelicolor A3(2) prenyltransferase assessed as formation of 6-(3,7-Dimethyl-octa-2,6-dienyl)-5,7-dihydroxy-2-(4-hydroxy-phenyl)-chroman-4-one
[8] = target: NphB prenyltransferase (Streptomyces sp. CL190); assay: Activity for Streptomyces sp. CL190 NphB prenyltransferase assessed as formation of 4-(3,7-dimethylocta-2,6-dienyl)-5-pentylbenzene-1,3-diol
[9] = target: NphB prenyltransferase (Streptomyces sp. CL190); assay: Activity for Streptomyces sp. CL190 prenyltransferase NphB assessed as formation of 6-(3,7-Dimethyl-octa-2,6-dienyl)-5,7-dihydroxy-2-(4-hydroxy-phenyl)-chromen-4-one
[10] = target: NphB prenyltransferase (Streptomyces sp. CL190); assay: Activity for Streptomyces sp. CL190 NphB prenyltransferase assessed as formation of 7-(3,7-dimethylocta-2,6-dienyloxy)-3-(4-hydroxyphenyl)-2,3-dihydrochromen-4-one
[11] = target: NphB prenyltransferase (Streptomyces sp. CL190); assay: Activity for Streptomyces sp. CL190 prenyltransferase NphB assessed as formation of 7-(3,7-Dimethyl-octa-2,6-dienyloxy)-5-hydroxy-2-(4-hydroxy-phenyl)-chromen-4-one
[12] = target: NphB prenyltransferase (Streptomyces sp. CL190); assay: Activity for Streptomyces sp. CL190 prenyltransferase NphB assessed as formation of 2-(3,7-dimethylocta-2,6-dienyl)naphthalene-1,6-diol
[13] = target: NphB prenyltransferase (Streptomyces sp. CL190); assay: Activity for Streptomyces sp. CL190 prenyltransferase NphB assessed as formation of 1-(3,7-dimethylocta-2,6-dienyl)naphthalene-2,7-diol
[14] = substrate: O=C1C[C@@H](c2ccc(O)cc2)Oc2cc(O)cc(O)c21; assay: Activity for Streptomyces coelicolor A3(2) prenyltransferase assessed as formation of 7-(3,7-Dimethyl-octa-2,6-dienyloxy)-5-hydroxy-2-(4-hydroxy-phenyl)-chroman-4-one
[15] = target: NphB prenyltransferase (Streptomyces sp. CL190); assay: Activity for Streptomyces sp. CL190 NphB prenyltransferase assessed as formation of 2-(3,7-dimethylocta-2,6-dienyl)-5-pentylbenzene-1,3-diol
[16] = target: NphB prenyltransferase (Streptomyces sp. CL190); assay: Activity for Streptomyces sp. CL190 prenyltransferase NphB assessed as formation of 5-(3,7-dimethylocta-2,6-dienyl)naphthalene-1,6-diol
[17] = target: NphB prenyltransferase (Streptomyces sp. CL190); assay: Activity for Streptomyces sp. CL190 prenyltransferase NphB assessed as formation of 7-(3,7-dimethylocta-2,6-dienyloxy)-5-hydroxy-3-(4-hydroxyphenyl)-2,3-dihydrochromen-4-one
[18] = target: NphB prenyltransferase (Streptomyces sp. CL190); assay: Activity for Streptomyces sp. CL190 NphB prenyltransferase assessed as formation of 4-(3,7-dimethylocta-2,6-dienyl)naphthalene-1,6-diol

`O=C1C[C@@H](c2ccc(O)cc2)Oc2cc(O)cc(O)c21` gave a Ratio [1] of 0.31 and a Ratio [2] of 1.4.

Work on `Oc1ccc2c(O)cccc2c1` yielded a Ratio [3] of 0.3, a Ratio [4] of 7.7 and a Ratio [5] of 2.2.

B1: Prenyltransferase homolog (Streptomyces coelicolor A3), Q9FBZ2 (protein)
chain: T1 sequence (whole entry)
Work on B1 yielded a Km [6] of 440 µM, a kcat [6] of 5.3e-05 s⁻¹ and a Km [7] of 2100 µM. For the same molecule, the Km [8] was 640 µM, the kcat [8] was 4.3e-05 s⁻¹ and the Km [9] was 530 µM. It also gave a kcat [9] of 0.0006 s⁻¹, a Km [10] of 290 µM and a kcat [10] of 0.00017 s⁻¹. For the same molecule, the Km [11] was 580 µM, the kcat [11] was 0.00033 s⁻¹ and the Km [12] was 510 µM. The kcat [12] was 0.0011 s⁻¹, the Km [13] was 340 µM and the kcat [13] was 0.00047 s⁻¹. It also gave a Km [14] of 1600 µM, a Km [15] of 520 µM and a kcat [15] of 2.7e-05 s⁻¹. For the same molecule, the Km [16] was 540 µM, the kcat [16] was 0.0042 s⁻¹ and the Km [17] was 330 µM. For the same molecule, the kcat [17] was 0.00048 s⁻¹, the Km [18] was 1050 µM and the kcat [18] was 0.00032 s⁻¹.
